This note sets out measurements from patent US20150175697A1 (MacroGenics, published 2015).

One may read the Kd as the free concentration of one partner at which half of the binding sites on the other are occupied at equilibrium, for simple one-to-one binding. A lower Kd goes with a tighter complex.

The target in assay [1] is T1, soluble CD32B (sCD32B) (human, UniProt P31994 43-217).
T1 construct: extracellular domain; also called FcγRIIB; soluble CD32B ectodomain
T1 sequence (looked up): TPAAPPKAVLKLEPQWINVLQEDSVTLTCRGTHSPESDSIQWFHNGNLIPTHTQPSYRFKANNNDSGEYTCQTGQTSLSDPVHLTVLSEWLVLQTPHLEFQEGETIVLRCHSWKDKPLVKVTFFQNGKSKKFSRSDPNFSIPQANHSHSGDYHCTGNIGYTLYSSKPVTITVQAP
As to the kind of experiment: SPR (BIAcore), receptor immobilised. Background: SPR reads the build-up and loss of mass on a sensor chip optically.

The target of a further assay is T2, soluble CD32A (sCD32A) (UniProt P12318 34-217, limits assumed).
T2 construct: extracellular domain; also called sCD32A (negative control)
T2 sequence (looked up): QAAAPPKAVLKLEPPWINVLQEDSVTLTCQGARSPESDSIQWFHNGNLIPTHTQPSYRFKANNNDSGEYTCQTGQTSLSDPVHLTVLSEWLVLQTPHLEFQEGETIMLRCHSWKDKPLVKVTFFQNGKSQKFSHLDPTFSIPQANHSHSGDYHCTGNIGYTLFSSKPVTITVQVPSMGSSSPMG
As to the kind of experiment: SPR (BIAcore): sCD32A (negative control) immobilised, diabody injected for 60 s.

The target in a further assay is T3, soluble CD16A (sCD16A) (human, UniProt P08637 17-208).
T3 construct: extracellular domain; given only as soluble; immobilised in SPR, plate coat or biotin/HRP-labelled probe in ELISA; also called FcγRIIIA; sCD16A-Biotin
As to the kind of experiment: SPR (BIAcore): sCD16 immobilised, diabody injected for 60 s.

The target in assay [2] is T1, soluble CD32B (sCD32B). The assay can be described thus: sandwich ELISA: sCD32B coated (sCD32B-Ig, 2 ug/ml), diabody titrated, labelled sCD16A as probe.
The target of the next assay is T4, sCD32B-Ig (UniProt P31994 43-217).
T4 construct: extracellular domain; also called CD32B-Fc; CD32-Fc; not shown: Ig/Fc part not described
T4 sequence (looked up): T1 sequence (looked up)
The assay can be described thus: sandwich ELISA, sCD32B-Ig coat, sCD16A probe. A general note: An ELISA detects its analyte on a solid surface through an enzyme-linked reagent.

In assay [3] the target is T5, human serum albumin (HSA) (human, UniProt P02768 25-609).
T5 construct: also called HRP-human albumin
As to the kind of experiment: HSA binding class.

T3 sequence (P08637 17-208): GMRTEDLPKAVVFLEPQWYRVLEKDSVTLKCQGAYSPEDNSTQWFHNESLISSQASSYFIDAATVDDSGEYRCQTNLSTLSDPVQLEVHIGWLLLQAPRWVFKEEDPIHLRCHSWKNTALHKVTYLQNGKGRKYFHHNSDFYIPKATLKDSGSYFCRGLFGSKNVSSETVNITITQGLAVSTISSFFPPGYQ

B1: h2B6 covalent monospecific diabody (CMD) (other)
chain: EIVLTQSPDFQSVTPKEKVTFTCRTSQSIGTNIHWYQQKPDQSPKLLIKEVSESISGVPSRFSGSGSGTDFTLTINSLEAEDAATYYCQQSNTWPFTFGGGTKVEIKGGGSGGGGQVQLVQSGAEVKKPGASVKVSCKASGYTFTNYWIHWVRQAPGQGLEWIGVIDPSDTYPNYNKKFKGRVTMTVVVSTSTAYMELRSLRSDDTAVYYCARNGDSDYYSGMDYWGQGTTVTVSSLGGC
modifications: covalent homodimer: two copies of this chain, disulfide-linked through the C-terminal LGGC cysteine
notes: covalent homodimer; also called h2B6 CMD; h2B6 diabody
For the molecule B1, the affinity with soluble CD32B (sCD32B) [1], expressed as Kd, was 21 nM. In addition, the binding result with soluble CD32A (sCD32A) and in the assay with soluble CD16A (sCD16A) was “no binding (tested: 100 nM)” throughout.

B2: h3G8 covalent monospecific diabody (CMD) (other)
chain: DIVMTQSPDSLAVSLGERATINCKASQSVDFDGDSFMNWYQQKPGQPPKLLIYTTSNLESGVPDRFSGSGSGTDFTLTISSLQAEDVAVYYCQQSNEDPYTFGQGTKLEIKGGGSGGGGQVTLRESGPALVKPTQTLTLTCTFSGFSLSTSGMGVGWIRQPPGKALEWLAHIWWDDDKRYNPALKSRLTISKDTSKNQVVLTMTNMDPVDTATYYCAQINPAWFAYWGQGTLVTVSSLGGC
modifications: covalent homodimer: two copies of this chain, disulfide-linked through the C-terminal LGGC cysteine
notes: covalent homodimer; also called h3G8 CMD; h3G8 diabody
Take B2: the binding result in the assay with soluble CD32A (sCD32A) was “no binding (tested: 100 nM)”; in the assay with soluble CD32B (sCD32B) [2], “no binding (tested: 0.5 ug/ml)”; with sCD32B-Ig, “no binding (tested: 0.5 µg/ml to 0.001 µg/ml)”.

B3: ABD3 L64G/I65A/V71A (other)
chain: LAEAKVLANRELDKYGVSDYYKNGANNAKTAEGVKALIDEILAALP
notes: also called 64G/65A/71A
Consider B3, for which the HSA binding in assay [3] was less than 0.1.
